The source of these data is patent publication US20190062438A1 (CSL, published 2019).

Where a chain is given by its changes, count along the chain named.

The target in assay [1] is T1, soluble Homo sapiens CD131 comprising a C-terminal 6xHis tag (human, UniProt P32927 17-438).
T1 construct: truncated after Ser438, C-terminal 6xHis; also called shCD131; shβc
T1 sequence: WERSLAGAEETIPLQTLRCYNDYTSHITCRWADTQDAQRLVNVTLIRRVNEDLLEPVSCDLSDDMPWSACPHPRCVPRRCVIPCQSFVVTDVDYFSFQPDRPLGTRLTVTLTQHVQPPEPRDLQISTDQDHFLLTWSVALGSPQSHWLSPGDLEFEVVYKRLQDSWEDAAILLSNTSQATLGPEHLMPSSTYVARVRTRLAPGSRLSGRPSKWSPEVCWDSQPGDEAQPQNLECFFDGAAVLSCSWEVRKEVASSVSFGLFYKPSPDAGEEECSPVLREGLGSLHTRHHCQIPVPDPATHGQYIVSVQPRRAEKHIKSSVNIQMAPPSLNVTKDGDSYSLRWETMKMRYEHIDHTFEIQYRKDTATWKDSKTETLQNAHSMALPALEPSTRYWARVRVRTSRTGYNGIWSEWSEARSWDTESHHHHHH
The assay is described as follows: SPR, Fab over captured shCD131. As to the method: Binding kinetics were measured using SPR with a BIAcore™ A-100 instrument (GE Healthcare Life Sciences). An anti-C-terminal Hexa-His antibody (3H3) was immobilized on spots 1, 2, 4 and 5 of each flow cell of a CM-5 sensor chip (GE Healthcare Life Sciences) using amine-coupling chemistry (116). […] As shβc is a dimer, kinetics assays were performed with shβc captured on the sensor surface, and purified Fab injected as the analyte. Avidity effects were avoided by the use of Fab rather than whole IgG.
shCD131 was captured on spots 1 and 5 of each flow cell for 2 minutes at a concentration of 0.4 μg/ml. […] For some analysis purified Fab was injected over each flow cell for 3 minutes and dissociation was monitored for a further 10 minutes. Regeneration of the surface was performed after each cycle with a 40 second injection of 25 mM glycine, pH 2.0. The analysis was performed with Fabs at several concentrations between 100 and 0.31 nM, with each concentration analyzed twice and in random order. The analysis was performed at a flow rate of 30 μl/min in HBS-EP buffer (10 mM Hepes, 150 mM NaCl, 3 mM EDTA, 0.005% Tween 20, pH 7.4) at 37° C. Responses from spots 2 and 4 of each flow cell, (in which shβc was not captured, but otherwise treated identically), were subtracted from those of spots 1 and 5 respectively to produce reference subtracted data. Reference subtracted responses from a blank injection comprising buffer alone were subtracted from the resultant sensorgrams to produce double referenced data suitable for kinetic analysis. Double-referenced sensorgrams were fitted using non-linear regression to a model describing 1:1 kinetics, including a term for mass transport limitation. The Rₘₐₓ value was fitted locally to account for slight deviations in the level of sCD131 captured, with association rate (kₐ), dissociation rate (kd) and equilibrium dissociation constant (KD) fitted globally.
On the technique in general: Surface plasmon resonance follows binding to a sensor surface in real time, without labels.

Assay [2] deals with T1, soluble Homo sapiens CD131 comprising a …. The assay is described as follows: SPR, kinetics, Fab over captured shCD131.
Another assay concerns the target T2, shCD131 T40A (human, UniProt P32927 17-438).
T2 construct: C-terminal 6xHis
T2 sequence: T1 sequence with T24A
The assay is described as follows: SPR, steady state, Fab over captured mutant. The method, then:
For some analysis purified Fab was injected over each flow cell for 3 minutes and dissociation was monitored for a further 10 minutes. Regeneration of the surface was performed after each cycle with a 40 second injection of 25 mM glycine, pH 2.0. The analysis was performed with Fabs at several concentrations between 100 and 0.31 nM, with each concentration analyzed twice and in random order. The analysis was performed at a flow rate of 30 μl/min in HBS-EP buffer (10 mM Hepes, 150 mM NaCl, 3 mM EDTA, 0.005% Tween 20, pH 7.4) at 37° C. Responses from spots 2 and 4 of each flow cell, (in which shβc was not captured, but otherwise treated identically), were subtracted from those of spots 1 and 5 respectively to produce reference subtracted data. Reference subtracted responses from a blank injection comprising buffer alone were subtracted from the resultant sensorgrams to produce double referenced data suitable for kinetic analysis. Double-referenced sensorgrams were fitted using non-linear regression to a model describing 1:1 kinetics, including a term for mass transport limitation. The Rₘₐₓ value was fitted locally to account for slight deviations in the level of sCD131 captured, with association rate (kₐ), dissociation rate (kd) and equilibrium dissociation constant (KD) fitted globally.
Mapping of the shCD131 epitope was performed by measurement of the affinity of Fabs for various alanine point mutants of shCD131 essentially as described above, with the following exceptions. Each shCD131 mutant was captured for 120 seconds at concentrations between 1 and 5 μg/ml. For kinetic analysis, purified recombinant Fabs were injected for 2 minutes, and dissociation was monitored for a further 2 minutes. […] Fab concentrations ranged from 16 μM to 3.9 nM in two-fold dilutions. The assays were conducted at 25° C. All sensorgrams were reference subtracted as described above. For determination of steady-state affinity (KD only), the response at the end of the binding phase was used to fit the data to a single-site binding model. Kinetic parameters were determined as described above.

Usually Kd stands for the equilibrium constant for the complex coming apart. Broadly, the koff is the first-order rate constant of dissociation. What is called kon is a measure of how fast the partners come together.

B1: 9A2 Fab (Fab, V domains shown)
VH: EVQLLESGGGLVQPGGSLRLSCAASGFTFSHYHMLWVRQAPGKGLEWVSSIRSSGGFTYYADSVKGRFTISRDNSKNTLYLQMNSLRAEDTAVYYCARFYDSFFDIWGQGTMVTVSS
VL: DIQMTQSPSSVSASVGDRVTITCRASQGISSWLAWYQQKPGKAPKLLIYAASSLQSGVPSRFSGSGSGTDFTLTISSLQPEDFATYYCQQANSFPITFGQGTRLEIKR
notes: also called recombinant Fab of 9A2
Turning to B1, in assay [1], the Kd was 49 nM, the koff stood at 0.096 s⁻¹ and the kon came to 2e+06 M⁻¹ s⁻¹. The molecule also displayed a Kd in assay [2] of 49 nM. Further, the Kd with shCD131 T40A worked out at 236 nM.
